Data from the RNAGym collection of RNA variant scans (doi:10.1021/acssynbio.7b00057).

B1: Pistol ribozyme (parent)
chain: GGGUCGUUGUUCCAUAAUCGCGUGGAUAUGGCACGCAAGUUUCUACCGGGCACCGUAAAUGUCCGACUGGAGCCGUUCGGGCGGCUAUAAACAGACCUCAGGCCCGAAGCGUGGCGGCACCUGCCGCCGGUGGUAAAAAAGAUCGGAAGAGCACACGUCU

Variants of: B1
Experiment: aptazyme ON/OFF ratio, guanine; higher = stronger switching; co-transcriptional cleavage with and without guanine

| Variant | aptazyme ON/OFF ratio |
| --- | --- |
| U7C U8A G9U U10G U11G C12G C13A | 1.21 |
| U7C U8A U10C U11A C12G C13U | 1.09 |
| U7C U8A U10C U11A C12G C13G | 1.25 |
| U7C U8A U10C U11A C12G C13A | 1.14 |
| U7C U8A U10C U11A C12A | 1.27 |
| U7C U8A U10C U11A C12U | 1.19 |
| U7C U8A U10C U11A C12G | 1.2 |
| U7C U8A U10G | 1.37 |
| U7C U8A U10A | 1.1 |
| U7C U8A U10C | 1.76 |
| U7C U8A U10C U11G C12G C13U | 1.08 |
| U7C U8A U10C U11G C12G C13A | 1.15 |
| U7C U8A U10C U11G C12G C13G | 1.08 |
| U7C U8A U10A U11G C12U C13G | 1.29 |
| U7C U8A U10A U11G C12U C13U | 1.2 |
| U7C U8A U10A U11G C12U C13A | 1.18 |
| U7C U8A G9U U10C U11G C12U C13A | 1.12 |
| U7C U8A G9U U10C U11G C12U C13U | 1.15 |
| U7C U8A G9U U10C U11G C12U C13G | 1.13 |
| U7C U8A U10C U11C | 1.05 |
| U7C U8A U10C U11G | 1.34 |

| Variant | aptazyme ON/OFF ratio |
| --- | --- |
| U7C U8A U10C U11A | 1.16 |
| U7C U8A U10C U11G C12A | 1.1 |
| U7C U8A U10C U11G C12U | 1.17 |
| U7C U8A U10C U11G C12G | 1.37 |
| U7C U8A G9U U10G U11G | 1.08 |
| U7C U8A G9U U10G U11C | 1.07 |
| U7C U8A G9U U10G U11A | 1.05 |
| U7C U8A U10C C12A | 1.41 |
| U7C U8A U10C C12U | 3.73 |
| U7C U8A U10C C12G | 1.63 |
| U7C U8A U10C U11A C12A C13U | 1.14 |
| U7C U8A U10C U11A C12A C13A | 1.2 |
| U7C U8A U10C U11A C12A C13G | 1.17 |
| U7C U8A G9U U10C U11A C13A | 1.15 |
| U7C U8A G9U U10C U11A C13U | 1.17 |
| U7C U8A G9U U10C U11A C13G | 1.07 |
| U7C U8A G9U U11G C12G C13U | 1.14 |
| U7C U8A G9U U11G C12G C13G | 1.16 |
| U7C U8A G9U U11G C12G C13A | 1.14 |
| U7C U8A G9U U10C U11C C12U | 1.08 |
| U7C U8A G9U U10C U11C C12A | 1.06 |

| Variant | aptazyme ON/OFF ratio |
| --- | --- |
| U7C U8A G9U U10C U11C C12G | 1.03 |
| U7C U8A G9U U10C U11C C12G C13A | 1.09 |
| U7C U8A G9U U10C U11C C12G C13U | 1.07 |
| U7C U8A G9U U10C U11C C12G C13G | 1.11 |
| U7C U8A U10A C12U C13G | 1.18 |
| U7C U8A U10A C12U C13A | 1.22 |
| U7C U8A U10A C12U C13U | 1.3 |
| U7C U8A U10G C12U C13A | 1.34 |
| U7C U8A U10G C12U C13U | 1.24 |
| U7C U8A U10G C12U C13G | 1.13 |
| U7C U8A G9U U11G C12A | 1.09 |
| U7C U8A G9U U11G C12U | 1.4 |
| U7C U8A G9U U11G C12G | 1.15 |
| U7C U8A U10C U11A C12U C13G | 1.17 |
| U7C U8A U10C U11A C12U C13A | 1.16 |
| U7C U8A U10C U11A C12U C13U | 1.16 |
| U7C U8A U10A U11C C13U | 1.01 |
| U7C U8A U10A U11C C13A | 1.03 |
| U7C U8A U10A U11C C13G | 1.04 |
| U7C U8A U10C U11C C12A C13U | 1.27 |
| U7C U8A U10C U11C C12A C13A | 1.18 |

| Variant | aptazyme ON/OFF ratio |
| --- | --- |
| U7C U8A U10C U11C C12A C13G | 1.27 |
| U7C U8A G9U U11A C12U | 1.06 |
| U7C U8A G9U U11A C12G | 1.14 |
| U7C U8A G9U U11A C12A | 1.19 |
| U7C U8A G9U U10C U11C C12U C13G | 1.02 |
| U7C U8A G9U U10C U11C C12U C13U | 1.02 |
| U7C U8A G9U U10C U11C C12U C13A | 1.03 |
| U7C U8A G9U U11G C12A C13G | 1.16 |
| U7C U8A G9U U11G C12A C13A | 1.12 |
| U7C U8A G9U U11G C12A C13U | 1.2 |
| U7C U8A G9U U10G C13U | 1.31 |
| U7C U8A G9U U10G C13A | 1.41 |
| U7C U8A G9U U10G C13G | 1.08 |
| U7C U8A U10G U11A C12U C13A | 1.3 |
| U7C U8A U10G U11A C12U C13U | 1.33 |
| U7C U8A U10G U11A C12U C13G | 1.24 |
| U7C U8A U10C C12U C13A | 1.17 |
| U7C U8A U10C C12U C13U | 1.54 |
| U7C U8A U10C C12U C13G | 1.17 |
| U7C U8A U10A U11A | 1.14 |
| U7C U8A U10A U11G | 1.22 |
